Where two headings read alike, the source gives them in different places.
Key:
CD47 on Raji cells [1] = target: T1, CD47 on Raji cells (human, UniProt Q08722 19-323); assay: flow cytometry on Raji cells
T1 construct: whole, on cells

CD47 on CHOK1-CD47 cells [2] = target: T2, CD47 on CHOK1-CD47 cells (UniProt Q08722 19-323); assay: flow cytometry on CHOK1-CD47 cells
T2 construct: whole, on cells; The rabbits were immunized with human CD47, so human is likely

[3] = target: T3, Recombinant human CD47 protein (DIMA BIOTECH, Cat# PME-100008) (human, UniProt Q08722 19-139, limits assumed); assay: ELISA on coated recombinant human CD47
T3 construct: Bought protein, coated on ELISA plates; also called CD47 antigen
T3 sequence (Q08722 19-139 limits assumed): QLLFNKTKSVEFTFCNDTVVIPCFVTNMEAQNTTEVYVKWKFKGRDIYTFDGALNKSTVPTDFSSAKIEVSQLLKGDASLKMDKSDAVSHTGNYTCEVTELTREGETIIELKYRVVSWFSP

[4] = target: antibody antigen (CD47) coated in the ELISA of Example 3 (UniProt Q08722); assay: ELISA on coated antigen, ratio against wild-type 70H1
Chain of antibody antigen (CD47) coated in the ELISA of Example 3 (Q08722 19-139 limits assumed): as above

CD47 on CHOK1-CD47 cells [5] = target: T2, CD47 on CHOK1-CD47 cells; assay: flow cytometry on CHOK1-CD47 cells; remark: listed apart in the source
CD47 on CHOK1-CD47 cells [6] = target: T2, CD47 on CHOK1-CD47 cells; assay: flow cytometry on CHOK1-CD47 cells; remark: listed apart in the source
[7] = target: T4, human CD47 antigen (immobilized on CM5 chip, Biacore) (human, UniProt Q08722 19-139, limits assumed); assay: SPR (Biacore T200), CD47 antigen on CM5 chip, antibody as analyte, 1:1 model
T4 sequence (Q08722 19-139 limits assumed): as above

[8] = target: T4, human CD47 antigen (immobilized on CM5 …); assay: SPR (Biacore T200)
CD47 on Raji cells [9] = target: T1, CD47 on Raji cells; assay: flow cytometry on Raji cells; remark: listed apart in the source
[10] = target: T3, Recombinant human CD47 protein (DIMA …); assay: ELISA on coated recombinant human CD47; remark: listed apart in the source

T1 sequence (Q08722 19-323): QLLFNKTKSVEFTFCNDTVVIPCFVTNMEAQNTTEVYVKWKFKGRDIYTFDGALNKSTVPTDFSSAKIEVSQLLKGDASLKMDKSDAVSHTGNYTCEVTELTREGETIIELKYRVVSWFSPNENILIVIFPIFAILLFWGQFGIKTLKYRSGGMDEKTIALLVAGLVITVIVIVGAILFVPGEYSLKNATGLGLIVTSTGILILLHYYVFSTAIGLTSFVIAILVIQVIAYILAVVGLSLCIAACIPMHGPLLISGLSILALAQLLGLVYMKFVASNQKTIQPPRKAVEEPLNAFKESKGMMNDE
T2 sequence (Q08722 19-323 limits assumed): as the sequence (Q08722 19-323) above

Binder | EC50 (CD47 on Raji cells [1]) | EC50 (CD47 on CHOK1-CD47 cells [2]) | EC50 [3] | Mutant Binding Strength (EC50 post-mutation / EC50 wild-type) [4] | EC50 (CD47 on CHOK1-CD47 cells [5]) | EC50 (CD47 on CHOK1-CD47 cells [6]) | Kd [7] | koff [7] | kon [7] | fold decrease of affinity compared to 70H1 [8] | fold lower binding compared to 70H1 (CD47 on Raji cells [9]) | fold lower binding compared to 70H1 (CD47 on CHOK1-CD47 cells [5]) | fold weaker binding affinity compared to 70H1 [10]
70H1.IgG1.Y61C (antibody, V domains shown, IgG1; also called 70H1 IgG1-mutation; 70H1 mutant VH-61 (Y-C)) VH: QQQLEESGGGLVKPEGSLTLTCTASGFSFSSGYDMCWVRQAPGRGLEWIACIYTRSSGGTCYASWAKGRFTISKTSSTVDLRMTSLTAADTATYFCAGGRSSYRLNLWGQGALVTVSS VL: DVVMTQTPSPVEAAVGGTVTIKCQASQSISNELSWYQQKPGQPPKLLIYRASTLESGVSSRFKGSGSGTEFTLTISDLECADAATYYCQSTFYGDYGNAFGGGTEVVVK | 0.47 nM | 0.39 nM | 0.07 nM | 1 |  |  |  |  |  |  |  |  | 
74F1 (antibody, V domains shown, Recombinant rabbit monoclonal antibody expressed in Expi293; it was detected with anti-human IgG Fc) VH: QQQLEESGGDLVKPEGSLTLTCTASGFSFSSRYNMCWVRQAPGKGLEWIACIYTGSSGSTYYASWAKGRFTISKTSSTVDLKMTSLTAADTATYFCAGGSYSYRLNLWGQGTLVTVSS VL: DVVMTQTPASVSTAVGGTVTIKCQASQSISNELSWYQQKPGQPPKLLIYRASTLESGVSSRFSGSGSGTEFTLTISDLECADAATYYCQATGYGDFGNAFGGGTEVVVK |  |  |  |  | 2.82 nM |  |  |  |  |  |  |  | 
70H1 (antibody, V domains shown, Rabbit-derived variable regions; also called 70H1.IgG1; 70H1 antibody) VH: QQQLEESGGGLVKPEGSLTLTCTASGFSFSSGYDMCWVRQAPGRGLEWIACIYTRSSGGTYYASWAKGRFTISKTSSTVDLRMTSLTAADTATYFCAGGRSSYRLNLWGQGALVTVSS VL: DVVMTQTPSPVEAAVGGTVTIKCQASQSISNELSWYQQKPGQPPKLLIYRASTLESGVSSRFKGSGSGTEFTLTISDLECADAATYYCQSTFYGDYGNAFGGGTEVVVK |  | 0.38 nM | 0.12 nM |  | 0.91 nM | 0.35 nM | 0.0308 nM | 0.00014 s⁻¹ | 4.54e+06 M⁻¹ s⁻¹ |  |  |  | 
CD47 TMEAbody activated (antibody, IgG1, V domains shown, Cys 61 (Y61C): 20K PEG blocker cleaved off by legumain (asparaginyl endopeptidase); what remains on the Cys is not stated, The CD47 TMEAbody after treatment with legumain / asparaginyl endopeptidase; IgG1) VH: QQQLEESGGGLVKPEGSLTLTCTASGFSFSSGYDMCWVRQAPGRGLEWIACIYTRSSGGTCYASWAKGRFTISKTSSTVDLRMTSLTAADTATYFCAGGRSSYRLNLWGQGALVTVSS VL: DVVMTQTPSPVEAAVGGTVTIKCQASQSISNELSWYQQKPGQPPKLLIYRASTLESGVSSRFKGSGSGTEFTLTISDLECADAATYYCQSTFYGDYGNAFGGGTEVVVK | 0.24 nM | 0.91 nM | 0.15 nM |  |  |  |  |  |  |  |  |  | 
CD47 TMEAbody (70H1.IgG1.Y61C + 20K PEG) (antibody, V domains shown, Cys 61 (Y61C) conjugated with PEG of approximately 20K molecular weight (blocker, cleavable by legumain), IgG1; The same question of backbone applies as for 70H1.IgG1.Y61C; also called 70H1 TMEAbody; 70H1; IgG1 + 20K PEG) VH: QQQLEESGGGLVKPEGSLTLTCTASGFSFSSGYDMCWVRQAPGRGLEWIACIYTRSSGGTCYASWAKGRFTISKTSSTVDLRMTSLTAADTATYFCAGGRSSYRLNLWGQGALVTVSS VL: DVVMTQTPSPVEAAVGGTVTIKCQASQSISNELSWYQQKPGQPPKLLIYRASTLESGVSSRFKGSGSGTEFTLTISDLECADAATYYCQSTFYGDYGNAFGGGTEVVVK | 31.9 nM | 7.6 nM | 0.72 nM |  |  |  | 14.1 nM | 0.000343 s⁻¹ | 24400 M⁻¹ s⁻¹ | 470 fold | ~60 fold | ~20 fold | ~7 fold

— patent EP4793287A1, “TUMOR MICROENVIRONMENT SPECIFICALLY ACTIVATED CD47 ANTIBODY” (Affinity (Shanghai) Biopharmaceutical Co., Ltd., priority 2023, dated 2025)
